Measurements published in the DeepSol protein solubility set.

Assay: soluble on expression in E. coli; label from the status in PepcDB or PDB records

Sequence | soluble on expression in E. coli
MSLAQHPTGIHHLAFMAGDIKKHIAFFSDVMGCPLVALFDMHGVPGGLHAFLRMNDHSYFSIVQLPDVDKIPVQLGVTHAGNGARPSAPGTLQHLAFRADTEDALLALRDRIRSHGINVLGPIDHGMCRSIYFAGPDQMTLEVACSSETIDEGHHHHHH | soluble
GPGSMHAFRTRDITLRVPSKDKLLRFSFCSSRHLLAETIRRHDLLRSTGAHVDFLQLLGTQITFTSLLASALEGEERVEARFTAEEATILTEALALGECRCYLRPEYNAQLAECGLPTFPLRVNRILYRQEKPFSSVVHADLAELLQPPCDVASSFAAASSGANEASGAPFSLYLPDMERRVPLEAWKSFFSYNSSLHAYNYLRRSDGSVPAVWLQSRIDAVRLVDHGFLNVDSTAAAAAWQRGEACSDEDDEKAQDIRRALLHAIPFSFGVVVTPLAAGVAVDQRVNQLNRVVMEAAALLSAPSGGGATVTSALQPLLDRCAEKHTACQHILSLVSGDHDGAYQAAVAARQYNDDPAQVAAVVDPIRRALGVQDFVVPLAATEAARSGLDFFCRCSKQNVLESLVSAPPRALESLKGSDNTVHCSFCGRRYKLAGAEWQELEMARSASTPPQ | not soluble
MQLRKKLHEAIVDGEEDDCPKRKIKKLDIQVDAATKVFSNQHILHDIIEYTVDGDKSILDNLRLRLVSRSFNNVVLSKVRAEFKMVQVCPYQQPEGADEKEEPEYDESNDIEDRSFMINDRRTWFSQVPRFFEFLNSVARIRVRDLLFSGFTSPDQRIHECILYSLLDGNWYSLNSYKGADELCNGCAVCSGNCFPLLAEIALHCVTMVGSREEAFSRLTKMITQDVNCDQLDLVFSDRCMWSKGTLAHPREVIDRIVKAWRVKSINIRFMTEYSSIDHEMWSNKRIFTEMRFDEMFVTDHNIIRPRHERDHFERVEVDMQAGDEIATCFAESMGMFEQSGMSATAFQNVCANVKRIFPTQDMYLILPTELAHVASVEFDGFCKALLEFAWKDERTARHSRLFFRLYTFGITEEQVLRQTENQFKINCRPVAAMLSDSSVRRSFLQWLPGSTSTFDRSLLSFTDVWNNCVLHLEVCIEADC | not soluble
MGSDKIHHHHHHMLDDHTQLEFPASGMTELPLIWQPQVIRCKAAGPGGRPLLVLLDTGTDPSAIDLTLARRLDLRLGDFALGSDATCDTVPFTETVLPWLRLGEVMLRNLYLMAVDLRQMPFPVDLVLGYNVLHRLNLTIDYAGQTVRLCHPDLAPPPPGAEGASVPLRFFEHFPALPAQIIAPSGATHDVILTIDTGSNGALTVSRDLAASLHLDLHTVQAATGHGFAAATPVSRGFTVDLQLGPFRLPAVEVDVPATSHGDLGRQGRANVGNRLLSRFRRLTLDYRREVCILDR | not soluble
APYRMAYIKKDPVDDARGSTNPFVRIPELSDEDGLIVARGEYVYCLLNLFPYNSGHMMVVPYRQEPNLEDLTAEEISELFAFGQAAIKVVKSVSRPDAINVGFNLGRASGGSVGEHLHMHIVPRWSGDANFMTVIDGTKVLPQLLRKTRSLLAQAWNDMDG | not soluble
MGSDKIHHHHHHMDDGYIAEFALYRSLMKNLPWDTYQLFIDVARNGGLTGAVQSTGLSAATLGRRMVELEQKLGRILFHRAQTGYTLTVDGRALLDHLKSFEAAERGIDLWRQQTSQPALVRVTAGTWISWLIAQNLPKLCRSNDRFRLDLHITEERAALAHRETDIGIRAFEPQESNLARVPLGEVAYAAYRHRLADELEGQPWIAVAQDAAISAYLKWPHQHKAEQILITVNRPRSLKDMAVSGMGLAVLPCFVGDSHPQLQRVGDEITELRHRQWLVTNNDDRHRSEIRDCAGRLVTLMRDFSDAFAGRR | not soluble
MILCSEKEKCEGIKNSKDEGIIPRVLILSTLQGEPSREKAKIGIFGINPGPHLPFERLYYTDILKKHGLFTSEYSKSNAIKAFKEIHDTWVSEFIKNYRNYPFHYKYFANTLEFLKKAKTVLIYRRKYNSVWRISILLEHHHHHH | not soluble
MAHHHHHHMGKGAVHPNGSNFCRFLKYNIVDKMRTLVNTNLYDTPRWLEWSERAPPMEIYNISLKTKYNNNKYMDLVKFLLKKYPHLRFQDCYVEGNNNIKGYDYFRNDHIITQMATHQLYYMNRGYSKKEALEKTEKLFYDRRMDIEKQQKINMCLAIDEKVKPIYTNGYQYLYEKMADNEKAHLSIILKKLRNMKEKLQKKKKGANENEDKKNGVLT | not soluble
MSLNMTSKETKEGLAGYFSSDAAKMQSNNVSPVANNPFVQSTDKLDTRDFKITEVERSHYAIAQKLRQMLMADATPQSASGISADDVGVQLRVNSDIMYAPGSAELAPEGAKVLDDVIRILKEYNLYLVVRGHTDSGEPRNSIYPSNWELSGARAAAAVRYIITHGEIKPTRLRSIAYADTRPLEPNTSPDSRAKNRRVEFYFHRPEVMSYSVVYEGHHHHHH | soluble
DEEPMHYGNIMYDRRVIRGNTYALQTGPLLGRPDSLELQRQREARKRALARKQAQEQLRPQTPEPVEGRKHVDVQTELYLEEIADRIIEVDMECQTDAFLDRPPTPLFIPAKTGKDVATQILEGELFDFDLEVKPVLEVLVGKTIEQSLLEVMEEEELANLRASQREYEELRNSERAEVQRLEEQERRHREEKERRKKQQWEIMHKHNETSQKIAARAFAQRYLADLLPSVFGSLRDSGYFYDPIERDIEIGFLPWLMNEVEKTMEYSMVGRTVLDMLIREVVEKRLCMYE | not soluble
MAQTVPYGIPLIKADKVQAQGFKGANVKVAVLDTGIQASHPDLNVVGGASFVAGEAYNTDGNGHGTHVAGTVAALDNTTGVLGVAPSVSLYAVKVLNSSGSGSYSGIVSGIEWATTNGMDVINMSLGGASGSTAMKQAVDNAYARGVVVVAAAGNSGNSGSTNTIGYPAKYDSVIAVGAVDSNSNRASFSSVGAELEVMAPGAGVYSTYPTNTYATLNGTSMASPHVAGAAALILSKHPNLSASQVRNRLSSTATYLGSSFYYGKGLINVEAAAQ | soluble
MQSTFRRSTLAALRGFALPSDAISIVPSAADYRRCLLEKIASATRRIYIIALYLQQDEAGQEILDALYAAKAARPELDVVVLVDWFRAQRGLIGAGRQPGNSTWYQAQNLEYDEEVPIYGVPVQTRELFGVLHLKGSVIDDCVIYSGASINNVYLHKLDKYRLDRYHLIESAPLADSFEHLVQREILPSAAVHRLDLQSPPSSRSLRSEIRAFRSDLKRATYDTSAGDKENGQLRVIPLLGVGPRNSLNRAICDLIASSKIQLTICTPYFNLPVAVTREVNRALKRGVKVDIIIGDKTANDFFIDPDEPFKVISALPYLYEISLRRFAHKHQKAIAQQRLNVHLWKHGDNTFHLKGIWVDQRYTLLTGNNLNPRAFNLDLENGLLIDDPQGQWTDPREAEIAQLMRNTQRVNQYDELDTLANYPEGVRKFLKRVSRVRVERLLYRILLEHHHHHH | not soluble
MEFINNITIRARVAFYLAVAQKAFEGLSENDQGYLQADEALKQCWNWLKGKNISGDELCEYLENERDTGLMVYSSFVQGDPVKEPIWITIITALMYTIWQAYQIENEKYLPESIEQVDEGTIDILIEYAKKCANYDEHWIKLLENYLLEKYRTTNMNEVGIAILKDEIMGIR | soluble
SLDMIRIDSQTNSSHLKDEFQTLNSVTPRLQAEDCSIACLPRNHDKNRFMDMLPPDRCLPFLITIDGESSNYINAALMDSYRQPAAFIVTQYPLPNTVKDFWRLVYDYGCTSIVMLNEVDLSQGCPQYWPEEGMLRYGPIQVECMSCSMDCDVINRIFRICNLTRPQEGYLMVQQFQYLGWASHREVPGSKRSFLKLILQVEKWQEECEEGEGRTIIHCLNGGGRSGMFCAIGIVVEMVKRQNVVDVFHAVKTLRNSKPNMVEAPEQYRFCYDVALEYLESS | not soluble
MHLTREVNIMSILSAVSRVINNFSTEIKNRVVEVGSNLKKSTEEFIGEVVIKAAVNRLKQGMLNALSSSNDTTKDNGNDLSTNSPDIEDVSAPTLSSKKKTEANTTLVGSTGIMQKLLGNIGVNSEQSIEVLSKHFNGAVERFTQDVSKAANEAVCEKIKSIQPEDVVKGINSLIGNTLKVDSESGDTTLSFKLESAVQILGVILAAMGMLMFASQTKSTEQKTLEIEHLPTEEIQPPSLAIH | not soluble
MGSDKIHHHHHHMKWLLFPARIVARTRPNLFSLYRRSVSQYLRPRTIQNLQSMAQTPELKTKLFKPLVWIDCEMTGLDHVNDRIIEICCIITDGHLAPVKAADGQGDSHYESVIHYGPEVMNKMNEWCIEHHGNSGLTAKVLASEKTLAQVEDELLEYIQRYIPDKNVGVLAGNSVHMDRLFMVREFPKVIDHLFYRIVDVSSIMEVARRHNPALQARNPKKEAAHTAYSDIKESIAQLQWYMDNYLKPPQETESVESIGSEQPESPSSSTSSLKRQRTDF | not soluble
MSILPSNTPLYSHPLPQIEQWLKDQGCQQDENELHCWRLQKPSWQAEIWLDIEQITVRYIQAGENGQNIQRSFKYSLSRQDIEQAIFCGP | not soluble
MFDTLTHGELLKKTAMEVEADIAGIHKQIEEISERNEWRVLQSYRKHKVSDTHFTPSTGYGYDDIGRDTLESIYADVFGGEAGLVRPQIISGTHAISIALFGVLRPGDELLYITGKPYDTLEEIVGVRGGENAGSLKDFQIGYNAVDLTKDGKIDYDAVAAAINPKTKVIGIQRSKGYANRPSFLISEIKEMIRFVKEINENLIVFVDNCYGEFVEELEPCHVGADLMAGSLIKNPGGGLAKTGGYLVGKAKWIEACSYRMTSPGIGREAGASLYSLQEMYQGFFLAPHVVSQSLKGAVFTARFLEKLGFTSNPKWDAKRTDLIQSVEFSDGEKMIAFCQAIQFASPIDAHVTPYPAYMPGYEDDVIMAAGTFIQGASIELSADGPIRPPYVAYVQGGLTYSHVKNAICSAVDSLMQKQLILEHHHHHH | soluble
MASLPTANPDLVVSDAKKPKWSWRAIKSFAMGELEARKLKYPNTGTEALLMGILIEGTSFTSKFLRANKIMLYKVREETVKLLGKADMYFFSPEHPPLTEDAQRALDSALDQNLKAGGIGEVMPAHILLGIWSEVESPGHKILATLGFTDEKSKELESFASESGFLDELEHHHHHH | soluble
MEGVVRLEVPTPEEGFVNITRKVEAALSGHTGLVYLFVPHTTCGLTVQEGADPTVAQDLLGRLAELAPRHRPQDRHLEGNSHAHLKSLLTGVHLLLLAEKGRLRLGRWQQVFLAEFDGPRVREVWVRLL | soluble
